From patent US20260125472A1 (HEFEI TG IMMUNOPHARMA, published 2026)

What was measured:
[1] = target: T1, Trop2 protein (UniProt P09758 27-274); assay: ELISA, coated Trop2 protein, OD450
T1 construct: Bought recombinant protein; also called Trop2-Biotin protein (biotin-labelled, bridging ELISA)
T1 sequence (looked up): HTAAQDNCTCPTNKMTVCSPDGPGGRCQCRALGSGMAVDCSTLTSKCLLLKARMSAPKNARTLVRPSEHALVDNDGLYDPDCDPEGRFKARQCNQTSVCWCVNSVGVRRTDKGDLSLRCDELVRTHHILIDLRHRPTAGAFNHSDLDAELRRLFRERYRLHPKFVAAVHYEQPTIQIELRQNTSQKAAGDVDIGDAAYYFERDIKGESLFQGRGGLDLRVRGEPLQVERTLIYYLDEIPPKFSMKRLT
Excerpt: In this example, the binding properties of the CD3×Trop2 and CD3×PDL1 bispecific antibody (the production method and the amino acid sequences of the heavy and light chains were shown in Example 1) were detected by using ELISA. The CD3E&D, Trop2, or PDL1 protein was coated onto 96-well plates by inventors, and the strength of the signal after the addition of the antibody was used to determine the binding properties of the antibody and the corresponding protein.
(2) Trop2 protein (purchased from Acro) was diluted to 2 μg/ml with PBS buffer, added to a 96-well plate at a volume of 100 μL/well, and placed at 4° C. overnight. The PBS buffer in the 96-well plate was aspirated, and the plate was washed 6 times with PBST (pH 7.2 PBS containing 0.1% Tween 20) buffer. Then, 200 μL/well PBS/10% BSA was added and incubated at 37° C. for 2 h for blocking. The blocking solution was removed, and the plate was washed six times with PBST. Then, the to-be-tested bispecific antibodies, Cross3×Trop2, Cross303×Trop2, Cross307×Trop2, Cross308×Trop2, Cross309×Trop2, Cross310×Trop2, Cross311×Trop2, Cross312×Trop2, Cross313×Trop2, Cross314×Trop2, Cross316×Trop2, Cross317×Trop2, Cross318×Trop2, Cross323×Trop2, Cross325×Trop2, Cross326×Trop2, and control IgG1LALA (purchased from Bio-Tech), serially diluted with PBST/0.05% BSA, were added at 100 μL/well and incubated at 37° C. for 1 h. The reaction system was removed, and the plate was washed 6 times with PBST. Then, HRP (horseradish peroxidase)-labeled anti-human secondary antibody (Fab specific) (purchased from Sigma) diluted with PBST/0.05% BSA at 100 μL/well. After the plate was washed six times with PBST, TMB (tetramethylbenzidine) was added at 80 μL/well, and incubated at room temperature for 3 min. 4 M sulfuric acid was added at 80 μL/well to terminate the reaction. The absorbance was read at 450 nm using a microplate reader.

[2] = target: T2, Trop2 on A-375-Trop2 melanoma cells (UniProt P09758 27-323, limits assumed); assay: flow cytometry, A-375-Trop2 cells, MFI [panel B]
T2 construct: whole, on cells
T2 sequence (looked up): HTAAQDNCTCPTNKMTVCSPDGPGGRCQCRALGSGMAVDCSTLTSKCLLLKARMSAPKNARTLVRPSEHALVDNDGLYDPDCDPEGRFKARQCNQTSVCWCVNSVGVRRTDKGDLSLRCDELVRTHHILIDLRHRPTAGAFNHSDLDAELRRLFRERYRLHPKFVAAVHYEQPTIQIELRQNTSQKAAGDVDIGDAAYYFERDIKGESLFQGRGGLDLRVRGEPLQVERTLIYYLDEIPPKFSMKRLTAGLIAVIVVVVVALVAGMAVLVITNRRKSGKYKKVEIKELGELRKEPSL
Description: (2) The tumor cells were diluted to 2×10⁶/ml with PBS and added to a 1.5 ml EP tube at a volume of 100 μl/tube, and goat serum was added thereto at 10 μl/tube. The cells were blocked at 4° C. for 30 min. The serially diluted bispecific antibodies, Cross3×Trop2, Cross303×Trop2, Cross307×Trop2, Cross308×Trop2, Cross309×Trop2, Cross310×Trop2, Cross311×Trop2, Cross312×Trop2, Cross313×Trop2, Cross314×Trop2, Cross316×Trop2, Cross317×Trop2, Cross318×Trop2, Cross323×Trop2, Cross325×Trop2, Cross326×Trop2, and Cross3×PDL1, Cross303×PDL1, Cross307×PDL1, Cross308×PDL1, Cross309×PDL1, Cross310×PDL1, Cross311×PDL1, Cross312×PDL1, Cross313×PDL1, Cross314×PDL1, Cross316×PDL1, Cross317×PDL1, Cross318×PDL1, Cross323×PDL1, Cross325×PDL1, Cross326×PDL1, and control hIgG1LALA (purchased from Bio-Tech) were added and incubated at 4° C. for 30 min. 1 ml of PBS was added to the EP tube, followed by centrifugation at 3500 rpm for 5 min at 4° C. The supernatant was discarded, and the cells were washed again with PBS. After centrifugation, the supernatant was completely discarded, and the cells were resuspended with PBS at 100 μl/tube. Alexa-647-labeled goat anti-human IgG secondary antibody (purchased from Jackson lab) was added at 1 μl/tube and incubated at 4° C. in the dark for 30 min. The cells were washed twice with PBS, and the supernatant was completely discarded after centrifugation. The cells were resuspended with PBS at 200 μl/tube and assay was performed using the flow cytometry.

B1: Cross314×Trop2 (bispecific antibody)
scFv: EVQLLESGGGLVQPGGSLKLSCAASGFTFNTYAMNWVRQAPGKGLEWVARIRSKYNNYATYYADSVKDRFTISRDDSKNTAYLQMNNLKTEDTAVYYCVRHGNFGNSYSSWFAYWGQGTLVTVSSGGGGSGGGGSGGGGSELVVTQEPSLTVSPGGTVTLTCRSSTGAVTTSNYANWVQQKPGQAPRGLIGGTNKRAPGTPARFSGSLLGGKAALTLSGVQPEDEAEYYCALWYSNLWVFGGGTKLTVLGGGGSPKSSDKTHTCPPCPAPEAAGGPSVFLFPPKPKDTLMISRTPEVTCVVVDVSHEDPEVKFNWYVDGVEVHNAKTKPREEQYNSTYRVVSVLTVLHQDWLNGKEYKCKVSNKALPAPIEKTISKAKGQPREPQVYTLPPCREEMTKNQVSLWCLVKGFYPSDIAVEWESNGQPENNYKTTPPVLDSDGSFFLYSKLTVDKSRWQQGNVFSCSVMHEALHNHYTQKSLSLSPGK
heavy: QVQLQQSGSELKKPGASVKVSCKASGYTFTNYGMNWVKQAPGQGLKWMGWINTYTGEPTYTDDFKGRFAFSLDTSVSTAYLQISSLKADDTAVYFCARGGFGSSYWYFDVWGQGSLVTVSSASTKGPSVFPLAPSSKSTSGGTAALGCLVKDYFPEPVTVSWNSGALTSGVHTFPAVLQSSGLYSLSSVVTVPSSSLGTQTYICNVNHKPSNTKVDKKVEPKSSDKTHTCPPCPAPEAAGGPSVFLFPPKPKDTLMISRTPEVTCVVVDVSHEDPEVKFNWYVDGVEVHNAKTKPREEQYNSTYRVVSVLTVLHQDWLNGKEYKCKVSNKALPAPIEKTISKAKGQPREPQVCTLPPSREEMTKNQVSLSCAVKGFYPSDIAVEWESNGQPENNYKTTPPVLDSDGSFFLVSKLTVDKSRWQQGNVFSCSVMHEALHNHYTQKSLSLSPGK
light: DIQLTQSPSSLSASVGDRVSITCKASQDVSIAVAWYQQKPGKAPKLLIYSASYRYTGVPDRFSGSGSGTDFTLTISSLQPEDFAVYYCQQHYITPLTFGAGTKVEIKRTVAAPSVFIFPPSDEQLKSGTASVVCLLNNFYPREAKVQWKVDNALQSGNSQESVTEQDSKDSTYSLSSTLTLSKADYEKHKVYACEVTHQGLSSPVTKSFNRGEC
With B1 the “EC50 (read off the curve)” value [1] was about 0.008 µg/mL and the “EC50 (read off the curve)” value [2] was about 1 µg/mL.

B2: Cross325×Trop2 (bispecific antibody)
scFv: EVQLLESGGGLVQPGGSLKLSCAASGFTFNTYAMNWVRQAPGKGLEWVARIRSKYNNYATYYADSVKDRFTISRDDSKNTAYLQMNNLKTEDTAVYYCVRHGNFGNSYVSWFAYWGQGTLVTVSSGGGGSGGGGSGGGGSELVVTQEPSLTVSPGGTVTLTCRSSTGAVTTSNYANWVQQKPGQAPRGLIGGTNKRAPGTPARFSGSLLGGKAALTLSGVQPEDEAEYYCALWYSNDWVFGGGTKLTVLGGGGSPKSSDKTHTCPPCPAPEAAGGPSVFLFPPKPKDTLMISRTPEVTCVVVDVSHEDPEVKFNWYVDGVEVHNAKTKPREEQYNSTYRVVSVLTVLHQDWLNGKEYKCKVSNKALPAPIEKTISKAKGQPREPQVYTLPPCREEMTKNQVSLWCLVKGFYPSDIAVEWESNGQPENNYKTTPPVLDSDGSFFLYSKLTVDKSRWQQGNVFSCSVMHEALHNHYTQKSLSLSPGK
heavy: QVQLQQSGSELKKPGASVKVSCKASGYTFTNYGMNWVKQAPGQGLKWMGWINTYTGEPTYTDDFKGRFAFSLDTSVSTAYLQISSLKADDTAVYFCARGGFGSSYWYFDVWGQGSLVTVSSASTKGPSVFPLAPSSKSTSGGTAALGCLVKDYFPEPVTVSWNSGALTSGVHTFPAVLQSSGLYSLSSVVTVPSSSLGTQTYICNVNHKPSNTKVDKKVEPKSSDKTHTCPPCPAPEAAGGPSVFLFPPKPKDTLMISRTPEVTCVVVDVSHEDPEVKFNWYVDGVEVHNAKTKPREEQYNSTYRVVSVLTVLHQDWLNGKEYKCKVSNKALPAPIEKTISKAKGQPREPQVCTLPPSREEMTKNQVSLSCAVKGFYPSDIAVEWESNGQPENNYKTTPPVLDSDGSFFLVSKLTVDKSRWQQGNVFSCSVMHEALHNHYTQKSLSLSPGK
light: DIQLTQSPSSLSASVGDRVSITCKASQDVSIAVAWYQQKPGKAPKLLIYSASYRYTGVPDRFSGSGSGTDFTLTISSLQPEDFAVYYCQQHYITPLTFGAGTKVEIKRTVAAPSVFIFPPSDEQLKSGTASVVCLLNNFYPREAKVQWKVDNALQSGNSQESVTEQDSKDSTYSLSSTLTLSKADYEKHKVYACEVTHQGLSSPVTKSFNRGEC
B2 was tested, and the “EC50 (read off the curve)” value [1] was about 0.008 µg/mL and the “EC50 (read off the curve)” value [2] was about 1 µg/mL.

B3: Cross316×Trop2 (bispecific antibody)
scFv: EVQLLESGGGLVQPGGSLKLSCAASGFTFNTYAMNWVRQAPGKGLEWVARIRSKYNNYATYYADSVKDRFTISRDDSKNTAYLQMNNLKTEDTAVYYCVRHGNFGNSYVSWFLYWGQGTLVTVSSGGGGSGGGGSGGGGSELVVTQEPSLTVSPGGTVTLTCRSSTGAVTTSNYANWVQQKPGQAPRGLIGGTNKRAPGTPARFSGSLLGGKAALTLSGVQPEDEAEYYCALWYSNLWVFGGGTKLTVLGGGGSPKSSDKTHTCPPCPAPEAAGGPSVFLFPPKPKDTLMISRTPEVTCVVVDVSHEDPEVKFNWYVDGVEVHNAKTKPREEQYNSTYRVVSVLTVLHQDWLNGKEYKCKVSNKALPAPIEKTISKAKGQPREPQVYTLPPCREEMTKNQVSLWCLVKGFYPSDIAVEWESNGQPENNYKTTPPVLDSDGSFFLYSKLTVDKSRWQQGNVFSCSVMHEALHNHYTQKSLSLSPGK
heavy: QVQLQQSGSELKKPGASVKVSCKASGYTFTNYGMNWVKQAPGQGLKWMGWINTYTGEPTYTDDFKGRFAFSLDTSVSTAYLQISSLKADDTAVYFCARGGFGSSYWYFDVWGQGSLVTVSSASTKGPSVFPLAPSSKSTSGGTAALGCLVKDYFPEPVTVSWNSGALTSGVHTFPAVLQSSGLYSLSSVVTVPSSSLGTQTYICNVNHKPSNTKVDKKVEPKSSDKTHTCPPCPAPEAAGGPSVFLFPPKPKDTLMISRTPEVTCVVVDVSHEDPEVKFNWYVDGVEVHNAKTKPREEQYNSTYRVVSVLTVLHQDWLNGKEYKCKVSNKALPAPIEKTISKAKGQPREPQVCTLPPSREEMTKNQVSLSCAVKGFYPSDIAVEWESNGQPENNYKTTPPVLDSDGSFFLVSKLTVDKSRWQQGNVFSCSVMHEALHNHYTQKSLSLSPGK
light: DIQLTQSPSSLSASVGDRVSITCKASQDVSIAVAWYQQKPGKAPKLLIYSASYRYTGVPDRFSGSGSGTDFTLTISSLQPEDFAVYYCQQHYITPLTFGAGTKVEIKRTVAAPSVFIFPPSDEQLKSGTASVVCLLNNFYPREAKVQWKVDNALQSGNSQESVTEQDSKDSTYSLSSTLTLSKADYEKHKVYACEVTHQGLSSPVTKSFNRGEC
B3 was tested, and the “EC50 (read off the curve)” value [1] was about 0.008 µg/mL and the “EC50 (read off the curve)” value [2] was about 1 µg/mL.

B4: Cross323×Trop2 (bispecific antibody)
scFv: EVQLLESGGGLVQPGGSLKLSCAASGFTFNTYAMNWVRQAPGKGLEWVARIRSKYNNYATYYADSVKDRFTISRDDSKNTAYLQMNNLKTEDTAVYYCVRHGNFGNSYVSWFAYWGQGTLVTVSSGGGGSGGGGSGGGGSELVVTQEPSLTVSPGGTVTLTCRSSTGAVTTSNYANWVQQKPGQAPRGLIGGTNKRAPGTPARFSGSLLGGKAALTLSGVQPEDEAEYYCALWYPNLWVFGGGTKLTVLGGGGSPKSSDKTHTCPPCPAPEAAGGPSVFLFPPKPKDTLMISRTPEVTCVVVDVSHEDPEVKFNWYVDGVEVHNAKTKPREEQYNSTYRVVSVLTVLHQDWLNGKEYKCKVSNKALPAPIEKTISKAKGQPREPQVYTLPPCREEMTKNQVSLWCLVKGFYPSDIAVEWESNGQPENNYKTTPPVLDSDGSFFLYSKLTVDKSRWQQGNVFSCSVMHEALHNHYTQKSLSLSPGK
heavy: QVQLQQSGSELKKPGASVKVSCKASGYTFTNYGMNWVKQAPGQGLKWMGWINTYTGEPTYTDDFKGRFAFSLDTSVSTAYLQISSLKADDTAVYFCARGGFGSSYWYFDVWGQGSLVTVSSASTKGPSVFPLAPSSKSTSGGTAALGCLVKDYFPEPVTVSWNSGALTSGVHTFPAVLQSSGLYSLSSVVTVPSSSLGTQTYICNVNHKPSNTKVDKKVEPKSSDKTHTCPPCPAPEAAGGPSVFLFPPKPKDTLMISRTPEVTCVVVDVSHEDPEVKFNWYVDGVEVHNAKTKPREEQYNSTYRVVSVLTVLHQDWLNGKEYKCKVSNKALPAPIEKTISKAKGQPREPQVCTLPPSREEMTKNQVSLSCAVKGFYPSDIAVEWESNGQPENNYKTTPPVLDSDGSFFLVSKLTVDKSRWQQGNVFSCSVMHEALHNHYTQKSLSLSPGK
light: DIQLTQSPSSLSASVGDRVSITCKASQDVSIAVAWYQQKPGKAPKLLIYSASYRYTGVPDRFSGSGSGTDFTLTISSLQPEDFAVYYCQQHYITPLTFGAGTKVEIKRTVAAPSVFIFPPSDEQLKSGTASVVCLLNNFYPREAKVQWKVDNALQSGNSQESVTEQDSKDSTYSLSSTLTLSKADYEKHKVYACEVTHQGLSSPVTKSFNRGEC
B4 was tested, and the “EC50 (read off the curve)” value [1] was about 0.008 µg/mL and the “EC50 (read off the curve)” value [2] was about 1 µg/mL.

B5: Cross318×Trop2 (bispecific antibody)
scFv: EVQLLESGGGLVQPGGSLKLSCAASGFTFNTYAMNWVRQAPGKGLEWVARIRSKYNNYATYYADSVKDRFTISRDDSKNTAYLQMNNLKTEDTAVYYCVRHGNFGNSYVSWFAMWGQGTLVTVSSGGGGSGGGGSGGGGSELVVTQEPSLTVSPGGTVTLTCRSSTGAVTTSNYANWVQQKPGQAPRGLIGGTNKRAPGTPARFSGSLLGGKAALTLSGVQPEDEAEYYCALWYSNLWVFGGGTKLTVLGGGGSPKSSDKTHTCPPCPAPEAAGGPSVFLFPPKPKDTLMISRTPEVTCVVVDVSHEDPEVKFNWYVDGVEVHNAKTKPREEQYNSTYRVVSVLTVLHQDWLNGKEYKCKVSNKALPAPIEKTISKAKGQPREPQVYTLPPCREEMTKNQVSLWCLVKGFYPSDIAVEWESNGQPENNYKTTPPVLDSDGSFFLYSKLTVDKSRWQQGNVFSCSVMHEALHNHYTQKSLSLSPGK
heavy: QVQLQQSGSELKKPGASVKVSCKASGYTFTNYGMNWVKQAPGQGLKWMGWINTYTGEPTYTDDFKGRFAFSLDTSVSTAYLQISSLKADDTAVYFCARGGFGSSYWYFDVWGQGSLVTVSSASTKGPSVFPLAPSSKSTSGGTAALGCLVKDYFPEPVTVSWNSGALTSGVHTFPAVLQSSGLYSLSSVVTVPSSSLGTQTYICNVNHKPSNTKVDKKVEPKSSDKTHTCPPCPAPEAAGGPSVFLFPPKPKDTLMISRTPEVTCVVVDVSHEDPEVKFNWYVDGVEVHNAKTKPREEQYNSTYRVVSVLTVLHQDWLNGKEYKCKVSNKALPAPIEKTISKAKGQPREPQVCTLPPSREEMTKNQVSLSCAVKGFYPSDIAVEWESNGQPENNYKTTPPVLDSDGSFFLVSKLTVDKSRWQQGNVFSCSVMHEALHNHYTQKSLSLSPGK
light: DIQLTQSPSSLSASVGDRVSITCKASQDVSIAVAWYQQKPGKAPKLLIYSASYRYTGVPDRFSGSGSGTDFTLTISSLQPEDFAVYYCQQHYITPLTFGAGTKVEIKRTVAAPSVFIFPPSDEQLKSGTASVVCLLNNFYPREAKVQWKVDNALQSGNSQESVTEQDSKDSTYSLSSTLTLSKADYEKHKVYACEVTHQGLSSPVTKSFNRGEC
In the case of B5, the “EC50 (read off the curve)” value [1] is reported as about 0.02 µg/mL and the “EC50 (read off the curve)” value [2] is reported as about 1 µg/mL.
